B1: RQ40 (TM-YTE) (antibody, V domains shown)
VH: EVQLVESGAEVKKPGSSVKVSCKASGGTFSSYAINWVRQAPGQGLEWMGGIIPIFRTPHYAQKFQGRVTITADESTGTAYMELSSLRSEDTAVYYCASPSCGGDCPQYLKSSKLDWYFDLWGRGTLVTVSS
VL: VIWMTQSPGTLSLSPGERATLSCRASQSVSSTYLAWYQQKPGQAPRLLIYGASSRATGIPDRFSGSGSGTDFTLTISRLEPEDFAVYYCQHYGSSPLTFGQGTRLEIK
B2: RQ43 (TM-YTE) (antibody, V domains shown)
VH: EVQLLETGGGLVQPGRSLRLSCAASGFPFDDYAIHWVRLAPGKGLEWVSSISWDSGSIGYADSVKGRFTISRDNAKNSLYLQMNSLRAEDTALYYCAKGAFPGYSSGWYYGLDVWGQGATVTVSS
VL: QSVVTQPPSASGSLGQSVTISCTGTSSDVGGYNYVSWYQQHPGKAPKLMIFEVSKRPSGVPDRFSGSKSGNTASLTVSGLQAEDEADYYCSSYAGNKGVFGGGTKLTVL
B3: RQ33 (TM-YTE) (antibody, V domains shown)
VH: QVQLQESGPGLVKPSETLSLTCTVFGGSITSSNHYWVWIRQPPGKGLEWIGSMYYSGSTAYNPSLTNRVTISVDTSKNQFSLKLSSVTAADTAVYYCARQIGPKRPSQVADWFDPWGQGTLVTVSS
VL: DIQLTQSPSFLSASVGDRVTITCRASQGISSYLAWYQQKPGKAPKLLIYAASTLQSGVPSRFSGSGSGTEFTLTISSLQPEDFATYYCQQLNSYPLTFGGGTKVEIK

Target: SARS-CoV-2 spike RBD (residues 334-526), AviTag and 8×HisTag (SARS-CoV-2, UniProt P0DTC2 334-526)

Row | Binder | Kd
1 | B1 | < 0.001 nM
2 | B2 | < 0.001 nM
3 | B3 | 3.65 nM
